Test results published in patent US20140294898A1 (published 2014).
Positions of bridges follow the written chain, without caps; N, C: chain ends. Non-standard residues stand in square brackets, D forms with d. NMeNle = CCCC[C@H](NC)C(=O)O; αMeP = C[C@@]1(C(=O)O)CCCN1; NMeA = CN[C@@H](C)C(=O)O; Aze = O=C(O)[C@@H]1CCN1; Sar = CNCC(=O)O

B1: Compound No. 49 (peptide)
peptide: {CH2CO}-F[NMeA]N[αMeP]HL[Sar]WSW[NMeNle][NMeNle]RCG-NH2
modifications: thioether N-14
SMILES: CCCC[C@H]1C(=O)N(C)[C@@H](CCCC)C(=O)N[C@@H](CCCNC(=N)N)C(=O)N[C@H](C(=O)NCC(N)=O)CSCC(=O)N[C@@H](Cc2ccccc2)C(=O)N(C)[C@@H](C)C(=O)N[C@@H](CC(N)=O)C(=O)N2CCC[C@@]2(C)C(=O)N[C@@H](Cc2c[nH]cn2)C(=O)N[C@@H](CC(C)C)C(=O)N(C)CC(=O)N[C@@H](Cc2c[nH]c3ccccc23)C(=O)N[C@@H](CO)C(=O)N[C@@H](Cc2c[nH]c3ccccc23)C(=O)N1C
B2: Compound No. 50 (peptide)
peptide: {CH2CO}-F[NMeA]N[Aze]HL[Sar]WSW[NMeNle][NMeNle]RCG-NH2
modifications: thioether N-14
SMILES: CCCC[C@H]1C(=O)N(C)[C@@H](CCCC)C(=O)N[C@@H](CCCNC(=N)N)C(=O)N[C@H](C(=O)NCC(N)=O)CSCC(=O)N[C@@H](Cc2ccccc2)C(=O)N(C)[C@@H](C)C(=O)N[C@@H](CC(N)=O)C(=O)N2CC[C@H]2C(=O)N[C@@H](Cc2c[nH]cn2)C(=O)N[C@@H](CC(C)C)C(=O)N(C)CC(=O)N[C@@H](Cc2c[nH]c3ccccc23)C(=O)N[C@@H](CO)C(=O)N[C@@H](Cc2c[nH]c3ccccc23)C(=O)N1C
B3: Compound No. 5 (peptide)
peptide: {CH2CO}-A[NMeA]NPHL[Sar]WSW[NMeNle][NMeNle]RCG-NH2
modifications: thioether N-14
SMILES: CCCC[C@H]1C(=O)N(C)[C@@H](CCCC)C(=O)N[C@@H](CCCNC(=N)N)C(=O)N[C@H](C(=O)NCC(N)=O)CSCC(=O)N[C@@H](C)C(=O)N(C)[C@@H](C)C(=O)N[C@@H](CC(N)=O)C(=O)N2CCC[C@H]2C(=O)N[C@@H](Cc2c[nH]cn2)C(=O)N[C@@H](CC(C)C)C(=O)N(C)CC(=O)N[C@@H](Cc2c[nH]c3ccccc23)C(=O)N[C@@H](CO)C(=O)N[C@@H](Cc2c[nH]c3ccccc23)C(=O)N1C
B4: Compound No. 7 (peptide)
peptide: {CH2CO}-F[Sar]NPHL[Sar]WSW[NMeNle][NMeNle]RCG-NH2
modifications: thioether N-14
SMILES: CCCC[C@H]1C(=O)N(C)[C@@H](CCCC)C(=O)N[C@@H](CCCNC(=N)N)C(=O)N[C@H](C(=O)NCC(N)=O)CSCC(=O)N[C@@H](Cc2ccccc2)C(=O)N(C)CC(=O)N[C@@H](CC(N)=O)C(=O)N2CCC[C@H]2C(=O)N[C@@H](Cc2c[nH]cn2)C(=O)N[C@@H](CC(C)C)C(=O)N(C)CC(=O)N[C@@H](Cc2c[nH]c3ccccc23)C(=O)N[C@@H](CO)C(=O)N[C@@H](Cc2c[nH]c3ccccc23)C(=O)N1C
B5: Compound No. 10 (peptide)
peptide: {CH2CO}-F[NMeA]NPAL[Sar]WSW[NMeNle][NMeNle]RCG-NH2
modifications: thioether N-14
SMILES: CCCC[C@H]1C(=O)N(C)[C@@H](CCCC)C(=O)N[C@@H](CCCNC(=N)N)C(=O)N[C@H](C(=O)NCC(N)=O)CSCC(=O)N[C@@H](Cc2ccccc2)C(=O)N(C)[C@@H](C)C(=O)N[C@@H](CC(N)=O)C(=O)N2CCC[C@H]2C(=O)N[C@@H](C)C(=O)N[C@@H](CC(C)C)C(=O)N(C)CC(=O)N[C@@H](Cc2c[nH]c3ccccc23)C(=O)N[C@@H](CO)C(=O)N[C@@H](Cc2c[nH]c3ccccc23)C(=O)N1C
B6: Compound No. 8 (peptide)
peptide: {CH2CO}-F[NMeA]APHL[Sar]WSW[NMeNle][NMeNle]RCG-NH2
modifications: thioether N-14
SMILES: CCCC[C@H]1C(=O)N(C)[C@@H](CCCC)C(=O)N[C@@H](CCCNC(=N)N)C(=O)N[C@H](C(=O)NCC(N)=O)CSCC(=O)N[C@@H](Cc2ccccc2)C(=O)N(C)[C@@H](C)C(=O)N[C@@H](C)C(=O)N2CCC[C@H]2C(=O)N[C@@H](Cc2c[nH]cn2)C(=O)N[C@@H](CC(C)C)C(=O)N(C)CC(=O)N[C@@H](Cc2c[nH]c3ccccc23)C(=O)N[C@@H](CO)C(=O)N[C@@H](Cc2c[nH]c3ccccc23)C(=O)N1C

Target: T1, hPDL1(19-239)-TVMV-His (human, UniProt Q9NZQ7 19-239)
T1 construct: The text says amino acids 18-239, the construct name says 19-239; Expressed in HEK293T cells; Used at 10 nM final in the HTRF assay; also called PD-L1-His; PD-L1-TVMV-His
T1 sequence (Q9NZQ7 other isoform, or with tags, fused parts or gaps limits assumed): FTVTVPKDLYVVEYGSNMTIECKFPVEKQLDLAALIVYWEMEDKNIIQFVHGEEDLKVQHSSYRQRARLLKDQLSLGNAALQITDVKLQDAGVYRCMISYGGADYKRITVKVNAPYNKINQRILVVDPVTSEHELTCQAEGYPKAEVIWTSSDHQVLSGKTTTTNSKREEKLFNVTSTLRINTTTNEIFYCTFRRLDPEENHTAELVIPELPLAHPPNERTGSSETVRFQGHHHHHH
Assay: HTRF competition, PD-1-Ig binding to PD-L1-His
Procedure: All binding studies were performed in an HTRF assay buffer consisting of dPBS supplemented with 0.1% (w/v) bovine serum albumin and 0.05% (v/v) Tween-20. […] PD-L1 fusion proteins from either human, cynomologous macaques, or mouse were used. HTRF detection was achieved using europium crypate-labeled anti-Ig monoclonal antibody (1 nM final) and allophycocyanin (APC) labeled anti-His monoclonal antibody (20 nM final). Antibodies were diluted in HTRF detection buffer and 5 μl was dispensed on top of binding reaction. The reaction was allowed to equilibrate for 30 minutes and signal (665 nm/620 nm ratio) was obtained using an EnVision fluorometer. […]
HTRF Experiments were performed essentially as outlined supra. Variant macrocyclic peptides were created as outlined herein.

Compared with B1, B2 is 2.1-fold higher in IC50: 34 nM for the first, 71 nM for the second.

First: B3
Second: B4
The IC50 of the first is 120-fold higher: 6500 nM for the first, 55 nM for the second.

First: B5
Second: B6
The IC50 of the first is 1.9-fold lower: 16 nM for the first, 31 nM for the second.
